{"source": "paper PMC9213775", "about": "(iScience, 2022)", "proteins": {"B1": {"name": "UDS1-His6 (natural protein, Aspergillus nidulans, UniProt Q5B1I5 1-941, looked up)", "chain": "MNGFDFRSSQSSYGDPRHFSDASYGVPQPPPTKVLLDGYRDALGPANAEKSLYNSANPTSHPRRSIPPSANDPVAMYLLTETAMGDSVNYEILSVEEVEGLKKELRVLSNRMNAAKRKLALELKLRDAAMSLSRLHHKEEHDVDGSGRNEPNTDKTNEELVHINRKCEELSMDIWYSERKVQEIQKRLLEHTAGVLQLTHKGLKKNSKNGMPHTPESLSSSNTVDDFDDRSLYKASDPLDGPETYETRAPPPDNLAHDNSMQETERKLESMSSRLRDMLLQLDPDSEFSQIPQPSTSGDSFEPSAMIDAHLRYIENGISALGSLPKADMASQSLDPVSEQQLVEMRTQLLSIMENPGLPRAQTLPTAPDPTDSDLAKHLTFLSVGINGLESRVEKLLEQKSILTTQIQQQRELNSKSDAERDAKIADLIEQLAHLRKELELAEREGQQSKEDHDLTLKELEDVRRELLESRETHSSRDLGNSKNEAQQHAEAEIARLQSVIQEIQQEKDEHCEAHRRAEAEIDRLQAVIHQIQQEKDEHREAHERAEAETTRLQTIVEEVQQEKDEQHEAHGRAVAEVTRLQDIIQKIEQEKIERHEADERAEAEIVRLRDTIREIQQEKEEHHEARVRLEGEVARLQGVIGQLQESAESRESAEQQVAQLEETIHQIRHDADIRIKEATDSRAQADAKIAQLEGAMNEVRESLESQLKEATEARNNAEENSTRLQKELTELERDVVRAQTELTMVKAELDGAYGTRAQRAAEAAADPALFHELDELKARNFEMAEELAALKAGKPGSGDVHNRVETLERELRETVDDYEAMTKASIEFEKERERFESMIDSLRDRCEQLETQLNEERISWMGANNSASSMGRDGPYETTSTMVLKNEFKKMMRDTRAENMKILKAEQEERRKLEAILRNLKREQANLSGKSNISRTVTAS"}}, "molecular_target": "the molecule itself", "assay": "AUC", "data": [{"protein": "B1", "values": [{"measurement": "stoichiometry N", "result": 2}]}]}
